Laboratory results from publication PMC11286949.

Columns and labels:
[1] = target: T1, Arc1p dNdM1 (Saccharomyces cerevisiae) (UniProt P46672); assay: ITC; conditions: FP: 25 mM Tris-HCl pH 7.5, 2 mM MgCl2, 50 mM NaCl (Trbp111) or 150 mM NaCl (Arc1p), room temperature, ITC: 25 mM Tris-HCl pH 7.4, 150 mM NaCl
T1 sequence (P46672 whole entry, looked up): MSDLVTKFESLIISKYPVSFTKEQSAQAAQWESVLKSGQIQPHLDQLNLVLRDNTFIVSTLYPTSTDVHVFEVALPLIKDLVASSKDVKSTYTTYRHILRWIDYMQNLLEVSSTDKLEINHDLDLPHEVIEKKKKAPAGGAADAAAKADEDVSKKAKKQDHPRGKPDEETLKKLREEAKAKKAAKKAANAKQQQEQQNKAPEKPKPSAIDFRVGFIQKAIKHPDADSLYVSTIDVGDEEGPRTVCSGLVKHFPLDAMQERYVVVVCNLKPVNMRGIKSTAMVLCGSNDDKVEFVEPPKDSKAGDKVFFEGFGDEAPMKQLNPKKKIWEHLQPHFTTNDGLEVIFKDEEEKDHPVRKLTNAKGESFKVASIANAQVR

[2] = target: Aquifex aeolicus Trbp111 (tRNA-binding protein, 111 amino acids) (Aquifex aeolicus); assay: crystal structure; unbound (apo) Trbp111, 2.3 Å, space group C222_(1); crystals grew from a mixture with tRNA^Ile, 0.2 M lithium sulfate, 0.1 M Tris-HCl pH 8.5, 25% PEG 3350
[3] = target: T2, Arc1p dN del1-131 (Saccharomyces cerevisiae) (UniProt P46672); assay: ITC; conditions: FP: 25 mM Tris-HCl pH 7.5, 2 mM MgCl2, 50 mM NaCl (Trbp111) or 150 mM NaCl (Arc1p), room temperature, ITC: 25 mM Tris-HCl pH 7.4, 150 mM NaCl
T2 sequence: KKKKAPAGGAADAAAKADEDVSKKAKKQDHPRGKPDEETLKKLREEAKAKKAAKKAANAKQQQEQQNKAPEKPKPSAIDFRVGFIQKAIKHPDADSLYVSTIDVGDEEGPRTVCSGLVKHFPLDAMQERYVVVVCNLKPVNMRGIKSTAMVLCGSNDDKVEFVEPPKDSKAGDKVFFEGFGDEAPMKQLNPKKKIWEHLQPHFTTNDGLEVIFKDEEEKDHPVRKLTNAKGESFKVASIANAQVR

AGGCUUGUAGCUCAGGUGGUUAGAGCGCACCCCUGAUAAGGGUGAGGGCGGUGGUUCAAGUCCACUCAGGCCUACCA [tRNAIle WT]
Kd [1]: 2.55 µM

Aquifex aeolicus Trbp111 (tRNA-binding protein, 111 amino acids) (natural protein)
stoichiometry N [2]: 2

tRNAIle G18C/G19C
Kd [3]: 3.33 µM
